In PMC9504172:

Tests used:
Assay in all cases: pull-down; GST-Rab11 proteins immobilized on glutathione-Sepharose beads; lysates of cells expressing GFP-SPIN90 in buffer B (25 mM HEPES, 100 mM NaCl, 5 mM MgCl2, 1% NP-40, 10% glycerol); 2 h at 4 °C; immunoblot with anti-GFP
GST-Rab11 S25N (human) = GST-Rab11 S25N (human) (UniProt P62491)
GST-Rab11 WT (human) = GST-Rab11 WT (human) (UniProt P62491)
GST-Rab11 Q70L (human) = GST-Rab11 Q70L (human) (UniProt P62491)

relative band intensity (normalized to GST-Rab11 WT with SPIN90 FL) (GST-Rab11 S25N (human)): 2.89 | relative band intensity (normalized to GST-Rab11 WT with SPIN90 FL) (GST-Rab11 WT (human)): 1.8 | relative band intensity (normalized to GST-Rab11 WT with SPIN90 FL) (GST-Rab11 Q70L (human)): 1.43
Substance: GFP-SPIN90 C-term (C) (domain or fragment)
